B3: vitronectin, monomeric, purified from human plasma (natural protein)
chain: DQESCKGRCTEGFNVDKKCQCDELCSYYQSCCTDYTAECKPQVTRGDVFTMPEDEYTVYDDGEEKNNATVHEQVGGPSLTSDLQAQSKGNPEQTPVLKPEEEAPAPEVGASKPEGIDSRPETLHPGRPQPPAEEELCSGKPFDAFTDLKNGSLFAFRGQYCYELDEKAVRPGYPKLIRDVWGIEGPIDAAFTRINCQGKTYLFKGSQYWRFEDGVLDPDYPRNISDGFDGIPDNVDAALALPAHSYSGRERVYFFKGKQYWEYQFQHQPSQEECEGSSLSAVFEHFAMMQRDSWEDIFELLFWGRTSAGTRQPQFISRDWHGVPGQVDAAMAGRIYISGMAPRPSLAKKQRFRHRNRKGYRSQRGHSRGRNQNSRRPSRATWLSLFSSEESNLGANNYDDYRMDWLVPATCEPIQSVFFFSGDKYYRVNLRTRRVDTVDPPYPRSIAQYWLGCPAPGHL
notes: vitronectin, human, purified from plasma; In the MST experiment labelled with NT-647 RED-NHS; Plasma vitronectin circulates as variants of 75 and 65 kDa; also called Vn; full-length vitronectin; source: bought: Corning, purified from human plasma
B4: Dihydrolipoamide dehydrogenase (Lpd) of P. aeruginosa, recombinant full length (Lpd^1-478) (natural protein)
chain: MSQKFDVVVIGAGPGGYVAAIRAAQLGLKTACIEKYIGKEGKVALGGTCLNVGCIPSKALLDSSYKYHEAKEAFKVHGIEAKGVTIDVPAMVARKANIVKNLTGGIATLFKANGVTSFEGHGKLLANKQVEVTGLDGKTQVLEAENVIIASGSRPVEIPPAPLTDDIIVDSTGALEFQAVPKKLGVIGAGVIGLELGSVWARLGAEVTVLEALDKFLPAADEQIAKEALKVLTKQGLNIRLGARVTASEVKKKQVTVTFTDANGEQKETFDKLIVAVGRRPVTTDLLAADSGVTLDERGFIYVDDHCKTSVPGVFAIGDVVRGAMLAHKASEEGVMVAERIAGHKAQMNYDLIPSVIYTHPEIAWVGKTEQTLKAEGVEVNVGTFPFAASGRAMAANDTTGLVKVIADAKTDRVLGVHVIGPSAAELVQQGAIGMEFGTSAEDLGMMVFSHPTLSEALHEAALAVNGHAIHIANRKKR
notes: On the gel two bands, 57 and 50 kDa
B5: clusterin, purified from human plasma (natural protein)
chain 1: DQTVSDNELQEMSNQGSKYVNKEIQNAVNGVKQIKTLIEKTNEERKTLLSNLEEAKKKKEDALNETRESETKLKELPGVCNETMMALWEECKPCLKQTCMKFYARVCRSGSGLVGRQLEEFLNQSSPFYFWMNGDRIDSLLENDRQQTHMLDVMQDHFSRASSIIDELFQDRFFTREPQDTYHYLPFSLPHRRPHFFFPKSRIVR
chain 2: SLMPFSPYEPLNFHAMFQPFLEMIHEAQQAMDIHFHSPAFQHPPTEFIREGDDDRTVCREIRHNSTGCLRMKDQCDKCREILSVDCSTNNPSQAKLRRELDESLQVAERLTRKYNELLKSYQWKMLNTSSLLEQLNEQFNWVSRLANLTQGEDQYYLRVTTVASHTSDSDVPSGVTEVVVKLFDSDPITVTVPVEVSRKNPKFMETVAEKALQEYRKKHREE
notes: Disulfide-linked heterodimer of one alpha and one beta chain of 40 kDa each; In the MST experiment labelled with NT-647 RED-NHS; source: bought: BioVision, purified from human plasma; copies: 1 + 1

Columns and labels:
Details in all cases: both partners purified
[1] = target: B3; assay: ELISA; equimolar amounts (13.3 nM) of full length Lpd and Lpd deletion mutants immobilized on microtiter plates; vitronectin or clusterin added; bound ligand quantified with antibodies
[2] = target: B5; assay: as above
[3] = target: B4; assay: ELISA; two human ligands added together to immobilized Lpd, one at a constant concentration (vitronectin 5 μg/ml, clusterin 2.5 μg/ml, Factor H 5 μg/ml or plasminogen 5 μg/ml), the other at increasing concentrations; each detected with its own antibody
[4] = target: B4; assay: MST; fluid phase; NT-647-labeled vitronectin (50 nM) or clusterin (25 nM) mixed with Lpd in 1:2 dilutions (0.001 to 50 μM); 50 mM Tris-HCl pH 7.6, 150 mM NaCl, 10 mM MgCl2, 0.05% Tween-20; RT; 50% LED power, 80% MST power
[5] = target: Lpd deletion mutant Lpd^141-478 (P. aeruginosa strain PAO1, UniProt Q9I3D1 141-478); assay: ELISA; equimolar amounts (13.3 nM) of full length Lpd and Lpd deletion mutants immobilized on microtiter plates; vitronectin or clusterin added; bound ligand quantified with antibodies
[6] = target: T1, Lpd deletion mutant Lpd^1-160 (P. aeruginosa strain PAO1, UniProt Q9I3D1 1-160); assay: as above
T1 construct: Dihydrolipoamide dehydrogenase (Lpd), P. aeruginosa strain PAO1, residues 1-160; also called Lpd^1-160: 20 kDa; N-terminal Lpd^1-160

[7] = target: Lpd deletion mutant Lpd^264-478 (P. aeruginosa strain PAO1, UniProt Q9I3D1 264-478); assay: as above
Factor H = target: T2, Factor H (human, UniProt P08603 19-1231); assay: ELISA; two human ligands added together to immobilized Lpd, one at a constant concentration (vitronectin 5 μg/ml, clusterin 2.5 μg/ml, Factor H 5 μg/ml or plasminogen 5 μg/ml), the other at increasing concentrations; each detected with its own antibody
T2 construct: complement Factor H, human; source: bought: Complement Technology
T2 sequence (P08603 19-1231): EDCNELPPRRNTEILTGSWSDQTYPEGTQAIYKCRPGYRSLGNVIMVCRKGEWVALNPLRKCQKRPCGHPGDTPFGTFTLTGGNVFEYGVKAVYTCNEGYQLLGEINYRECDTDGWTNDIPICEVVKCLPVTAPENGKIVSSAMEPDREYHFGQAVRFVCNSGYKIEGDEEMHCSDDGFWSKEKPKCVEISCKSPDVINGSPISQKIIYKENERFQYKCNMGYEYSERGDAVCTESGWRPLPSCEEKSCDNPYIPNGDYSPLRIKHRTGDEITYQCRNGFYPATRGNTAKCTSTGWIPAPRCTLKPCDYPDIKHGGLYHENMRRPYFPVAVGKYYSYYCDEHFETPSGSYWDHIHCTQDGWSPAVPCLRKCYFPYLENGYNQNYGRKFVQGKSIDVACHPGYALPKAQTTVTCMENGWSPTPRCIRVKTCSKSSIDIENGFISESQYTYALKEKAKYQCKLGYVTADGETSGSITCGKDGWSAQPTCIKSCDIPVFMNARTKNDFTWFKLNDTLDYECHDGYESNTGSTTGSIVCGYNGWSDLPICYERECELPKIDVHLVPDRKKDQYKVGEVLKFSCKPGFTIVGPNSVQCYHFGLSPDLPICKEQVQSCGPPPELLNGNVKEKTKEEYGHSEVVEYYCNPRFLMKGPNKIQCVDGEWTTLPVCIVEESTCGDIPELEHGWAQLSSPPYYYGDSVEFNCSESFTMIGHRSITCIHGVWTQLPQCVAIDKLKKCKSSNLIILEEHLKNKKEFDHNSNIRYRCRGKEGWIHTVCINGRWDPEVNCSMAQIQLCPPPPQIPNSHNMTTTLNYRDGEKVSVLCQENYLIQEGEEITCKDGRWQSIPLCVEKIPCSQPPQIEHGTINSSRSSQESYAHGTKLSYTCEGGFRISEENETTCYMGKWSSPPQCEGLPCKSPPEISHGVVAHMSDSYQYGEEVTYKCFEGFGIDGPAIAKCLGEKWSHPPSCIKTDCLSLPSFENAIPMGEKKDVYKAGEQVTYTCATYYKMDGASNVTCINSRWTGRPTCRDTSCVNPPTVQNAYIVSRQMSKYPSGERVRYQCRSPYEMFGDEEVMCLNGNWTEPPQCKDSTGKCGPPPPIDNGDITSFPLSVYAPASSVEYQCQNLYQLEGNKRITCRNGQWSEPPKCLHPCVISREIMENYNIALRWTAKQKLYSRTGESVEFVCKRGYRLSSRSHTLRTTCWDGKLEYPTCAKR

B1: Lpd deletion mutant Lpd^1-382 (domain or fragment, P. aeruginosa strain PAO1, UniProt Q9I3D1 1-382, looked up)
chain: MSQKFDVVVIGAGPGGYVAAIRAAQLGLKTACIEKYIGKEGKVALGGTCLNVGCIPSKALLDSSYKYHEAKEAFKVHGIEAKGVTIDVPAMVARKANIVKNLTGGIATLFKANGVTSFEGHGKLLANKQVEVTGLDGKTQVLEAENVIIASGSRPVEIPPAPLTDDIIVDSTGALEFQAVPKKLGVIGAGVIGLELGSVWARLGAEVTVLEALDKFLPAADEQIAKEALKVLTKQGLNIRLGARVTASEVKKKQVTVTFTDANGEQKETFDKLIVAVGRRPVTTDLLAADSGVTLDERGFIYVDDHCKTSVPGVFAIGDVVRGAMLAHKASEEGVMVAERIAGHKAQMNYDLIPSVIYTHPEIAWVGKTEQTLKAEGVEVNV
notes: Dihydrolipoamide dehydrogenase (Lpd), P. aeruginosa strain PAO1, residues 1-382; also called Lpd^1-382: 53 kDa
[1]
  binding result: binds
[2]
  binding result: binds

B2: Lpd deletion mutant Lpd^1-287 (domain or fragment, P. aeruginosa strain PAO1, UniProt Q9I3D1 1-287, looked up)
chain: MSQKFDVVVIGAGPGGYVAAIRAAQLGLKTACIEKYIGKEGKVALGGTCLNVGCIPSKALLDSSYKYHEAKEAFKVHGIEAKGVTIDVPAMVARKANIVKNLTGGIATLFKANGVTSFEGHGKLLANKQVEVTGLDGKTQVLEAENVIIASGSRPVEIPPAPLTDDIIVDSTGALEFQAVPKKLGVIGAGVIGLELGSVWARLGAEVTVLEALDKFLPAADEQIAKEALKVLTKQGLNIRLGARVTASEVKKKQVTVTFTDANGEQKETFDKLIVAVGRRPVTTDLL
notes: Dihydrolipoamide dehydrogenase (Lpd), P. aeruginosa strain PAO1, residues 1-287; also called Lpd^1-287: 37 kDa
[1]
  binding result: binds

## B3
[3]
  percent reduction of Factor H binding to Lpd by vitronectin at four-fold molar excess: 37%
[4]
  Kd: 0.6 ± 0.05 µM
[5]
  percent reduction of binding (ELISA signal): 47%
[6]
  percent reduction of binding (ELISA signal): 51%
[7]
  percent reduction of binding (ELISA signal): 47%

## B4
Factor H
  binding result: binds

## B5
[4]
  Kd: 0.654 ± 0.054 µM

— PMC4569481, “Pseudomonas aeruginosa Uses Dihydrolipoamide Dehydrogenase (Lpd) to Bind to the Human Terminal Pathway Regulators Vitronectin and Clusterin to Inhibit Terminal Pathway Complement Attack” (PLoS ONE, 2015)
